Assay results: US20190263889A1 (ONCOC4, published 2019)

B1: human B7-1Fc fusion protein (Fc fusion, UniProt P33681 35-242, looked up, not shown: a dimerising Fc or GST)
chain: VIHVTKEVKEVATLSCGHNVSVEELAQTRIYWQKEKKMVLTMMSGDMNIWPEYKNRTIFDITNNLSIVILALRPSDEGTYECVVLKYEKDAFKREHLAEVTLSVKADFPTPSISDFEIPTSNIRRIICSTSGGFPEPHLSWLENGEELNAINTTVSQDPETELYAVSSKLDFNMTTNHSFMCLIKYGHLRVNQTFNWNTTKQEHFPDN
notes: Used biotinylated in ELISA; also called B7-1 Ig; B7-1 Ig fusion protein

How the values were obtained:
human IgG1-Fc control = biological target: T1, human IgG1-Fc control (human, UniProt P01857-1 99-330 = IgG part, limits assumed); experiment: ELISA, summary grade
T1 construct: domain: Fc; Negative control coated on plates; also called Control IgG1-Fc; hIg-Fc

[1] = biological target: B1; experiment: ELISA, summary grade
[2] = biological target: T2, CTLA-4Fc mutant protein M8 (human (murine residues substituted)); experiment: ELISA; binder 1000 ng/ml on coated target
T2 construct: also called Mutant 8

[3] = biological target: T3, CTLA-4Fc mutant protein M6 (human (murine residues substituted)); experiment: ELISA; binder 1000 ng/ml on coated target
T3 construct: also called Mutant 6

[4] = biological target: T3, CTLA-4Fc mutant protein M6; experiment: ELISA; binder 10 ng/ml on coated target

binding result (human IgG1-Fc control) | binding result [1] | OD450 [2] | OD450 [3] | OD450 [4] | Binder
no binding | – | – | – | – | human B7-2Fc fusion protein (Fc fusion, UniProt P42081 24-245, looked up, not shown: a dimerising Fc or GST, Used biotinylated in ELISA; also called hB7-2Fc; CD86) APLKIQAYFNETADLPCQFANSQNQSLSELVVFWQDQENLVLNEVYLGKEKFDSVHSKYMGRTSFDSDSWTLRLHNLQIKDKGLYQCIIHHKKPTGMIRIHQMNSELSVLANFSQPEIVPISNITENVYINLTCSSIHGYPEPKKMSVLLRTKNSTIEYDGVMQKSQDNVTELYDVSISLSVSFPDVTSNMTIFCILETDKTRLLSSPFSIELEDPQPPPDH
– | binds | – | – | – | CTLA-4Fc mutant protein M16 (Fc fusion) IQVTQPSVVLASSRGIASFVCEYASPGKATEVRVTVLRQADSQVTEVCAATFTEKNTVGFLDDSICTGTFNESRVNLTIQGLRAMDTGLYICKVELMYPPPYFVGMGNGTQIYVIDPEPCPDSDQEPKSSDKTHTSPPSPAPELLGGSSVFLFPPKPKDTLYITREPEVTCVVVDVSHEDPEVKFNWYVDGVEVHNAKTKPREEQYNSTYRVVSVLTVLHQDWLNGKEYKCKVSNKALPAPIEKTISKAKGQPREPQVYTLPPSRDELTKNQVSLTCLVKGFYPSDIAVEWESNGQPENNYKTTPPVLDSDGSFFLYSKLTVDKSRWQQGNVFSCSVMHEALHNHYTQKSLSLSPGK
no binding | – | 3.63 OD450 | 3.41 OD450 | 0.279 OD450 | B1
